# Measurements published in patent KR20160024853A, “당뇨병 치료를 위한 주사형 나노-네트워크 겔” (메사추세츠 인스티튜트 오브 테크놀로지, priority 2013, dated 2016).
# Key:
# [1] = Plasma human insulin in STZ-induced diabetic mice (human insulin ELISA); conditions: mouse, in vivo
# [2] = test system: STZ-induced diabetic mice (male C57B6); assay: Blood glucose control in STZ-induced diabetic mice after one subcutaneous injection; assay type: in vivo, mouse; conditions: after administration
substance,measurement,setting,value
"인슐린 용액: human recombinant insulin solution (zinc salt, Invitrogen)",plasma insulin concentration on the day after administration,[1],급격한 감소
same,time when BG rose to the hyperglycemic range,[2],둘째 날
